In publication doi:10.1101/2024.05.23.595586:

Target: TREM2 (a.a. 19-134), biotinylated, WT (human) (UniProt Q9NZC2)
Assay: BLI

Sequence of TREM2 (a.a. 19-134), biotinylated, WT (human) (Q9NZC2 19-134): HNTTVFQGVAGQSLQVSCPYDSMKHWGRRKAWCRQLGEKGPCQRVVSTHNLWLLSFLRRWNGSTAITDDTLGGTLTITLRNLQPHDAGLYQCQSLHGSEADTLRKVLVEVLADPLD

## oligomeric amyloid beta 42 (oAβ42) WT (peptide)
  Kd: 42.5 nM
